Measured values as given in patent US20160115217A1.

Tests used:
[1] = target: Notch1 (full-length receptor expressed on cells); test: cell-based or functional assay
[2] = target: Flt1 (VEGFR-1) on Ad-N1IC-transduced HUVEC (human) (UniProt P17948); test: cell-based or functional assay
Chain of Flt1 (VEGFR-1) on Ad-N1IC-transduced HUVEC (human) (P17948 27-1338): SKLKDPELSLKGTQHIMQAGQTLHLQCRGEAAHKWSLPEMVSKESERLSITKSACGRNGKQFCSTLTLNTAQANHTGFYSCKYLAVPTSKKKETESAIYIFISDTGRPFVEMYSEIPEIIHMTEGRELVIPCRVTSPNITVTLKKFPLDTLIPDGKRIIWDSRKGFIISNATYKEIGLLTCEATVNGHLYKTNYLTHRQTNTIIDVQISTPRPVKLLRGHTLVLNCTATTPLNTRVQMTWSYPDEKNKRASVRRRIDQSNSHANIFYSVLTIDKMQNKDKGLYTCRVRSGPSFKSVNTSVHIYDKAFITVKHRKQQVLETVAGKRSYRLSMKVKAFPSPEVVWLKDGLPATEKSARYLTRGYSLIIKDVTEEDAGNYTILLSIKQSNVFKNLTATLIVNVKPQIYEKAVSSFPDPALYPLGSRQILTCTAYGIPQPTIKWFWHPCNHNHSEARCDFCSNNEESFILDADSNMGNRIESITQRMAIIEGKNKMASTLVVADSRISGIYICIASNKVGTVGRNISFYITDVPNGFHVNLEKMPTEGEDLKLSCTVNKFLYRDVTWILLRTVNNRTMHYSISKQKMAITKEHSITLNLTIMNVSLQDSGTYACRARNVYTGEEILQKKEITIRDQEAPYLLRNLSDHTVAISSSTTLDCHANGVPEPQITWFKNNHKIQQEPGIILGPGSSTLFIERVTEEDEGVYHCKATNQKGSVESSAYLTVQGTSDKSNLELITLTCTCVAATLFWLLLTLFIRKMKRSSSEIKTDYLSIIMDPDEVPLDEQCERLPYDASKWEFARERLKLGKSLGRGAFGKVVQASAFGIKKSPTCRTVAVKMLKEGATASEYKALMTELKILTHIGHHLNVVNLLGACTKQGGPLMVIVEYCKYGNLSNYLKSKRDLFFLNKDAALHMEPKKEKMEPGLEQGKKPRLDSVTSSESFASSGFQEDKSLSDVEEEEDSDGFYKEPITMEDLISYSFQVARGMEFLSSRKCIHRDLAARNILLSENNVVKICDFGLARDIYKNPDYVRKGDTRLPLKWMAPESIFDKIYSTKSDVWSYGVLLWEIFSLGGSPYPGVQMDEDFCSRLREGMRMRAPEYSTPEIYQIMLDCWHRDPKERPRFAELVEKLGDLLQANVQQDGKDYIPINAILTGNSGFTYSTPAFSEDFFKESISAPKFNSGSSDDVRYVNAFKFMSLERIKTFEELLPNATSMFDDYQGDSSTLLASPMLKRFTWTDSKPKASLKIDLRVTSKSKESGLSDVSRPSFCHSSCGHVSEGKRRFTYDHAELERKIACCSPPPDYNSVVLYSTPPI

Substance | Hes1 reporter gene activity [1] [fold] | HUVEC buds containing multiple filopodia [2] [%]
Jagged1 (ligand) | 3.7 | 
P1GF (placental growth factor) (ligand) |  | 250
